Numbering of substitutions follows the chain as printed. Names and notes keep the numbering of the source.
B1: A67Q (designed binder)
chain: SMEEEVEKAAKEYEKKKKEAIEKHLEKLKAKDKEAAERFLKELEEAAKEYAKDEAKTMSEEEAKRRQKKYKEKVLLSELSEEEQKEIKEAEEKLVRTILKYVEEAAK
B2: D53I (designed binder)
chain: B1 chain with D53I, Q67A
B3: E82V (designed binder)
chain: B1 chain with Q67A, E82V
B4: K8E (designed binder)
chain: B1 chain with K8E, Q67A
B5: K85N (designed binder)
chain: B1 chain with Q67A, K85N
B6: E72H (designed binder)
chain: B1 chain with Q67A, E72H
B7: K100V (designed binder)
chain: B1 chain with Q67A, K100V
B8: T97V (designed binder)
chain: B1 chain with Q67A, T97V
B9: E83G (designed binder)
chain: B1 chain with Q67A, E83G
B10: E78K (designed binder)
chain: B1 chain with Q67A, E78K
B11: E81H (designed binder)
chain: B1 chain with Q67A, E81H
B12: L76N (designed binder)
chain: B1 chain with Q67A, L76N
B13: K17G (designed binder)
chain: B1 chain with K17G, Q67A
B14: A106G (designed binder)
chain: B1 chain with Q67A, A106G
B15: T57M (designed binder)
chain: B1 chain with T57M, Q67A
B16: L25P (designed binder)
chain: B1 chain with L25P, Q67A
B17: K73L (designed binder)
chain: B1 chain with Q67A, K73L
B18: R38S (designed binder)
chain: B1 chain with R38S, Q67A
B19: A10R (designed binder)
chain: B1 chain with A10R, Q67A
B20: A35P (designed binder)
chain: B1 chain with A35P, Q67A
B21: K8D (designed binder)
chain: B1 chain with K8D, Q67A
B22: A106K (designed binder)
chain: B1 chain with Q67A, A106K
B23: A47L (designed binder)
chain: B1 chain with A47L, Q67A
B24: E44K (designed binder)
chain: B1 chain with E44K, Q67A
B25: Y13A (designed binder)
chain: B1 chain with Y13A, Q67A
B26: A20L (designed binder)
chain: B1 chain with A20L, Q67A
B27: E82K (designed binder)
chain: B1 chain with Q67A, E82K
B28: K27L (designed binder)
chain: B1 chain with K27L, Q67A
B29: K71D (designed binder)
chain: B1 chain with Q67A, K71D
B30: A9R (designed binder)
chain: B1 chain with A9R, Q67A
B31: E14Q (designed binder)
chain: B1 chain with E14Q, Q67A
B32: L94G (designed binder)
chain: B1 chain with Q67A, L94G
B33: K107H (designed binder)
chain: B1 chain with Q67A, K107H
B34: K69N (designed binder)
chain: B1 chain with Q67A, K69N
B35: I87S (designed binder)
chain: B1 chain with Q67A, I87S
B36: Y13Q (designed binder)
chain: B1 chain with Y13Q, Q67A
B37: E3Y (designed binder)
chain: B1 chain with E3Y, Q67A
B38: L76R (designed binder)
chain: B1 chain with Q67A, L76R
B39: V74D (designed binder)
chain: B1 chain with Q67A, V74D
B40: E92I (designed binder)
chain: B1 chain with Q67A, E92I
B41: E14H (designed binder)
chain: B1 chain with E14H, Q67A
B42: M58T (designed binder)
chain: B1 chain with M58T, Q67A
B43: A10M (designed binder)
chain: B1 chain with A10M, Q67A
B44: A30R (designed binder)
chain: B1 chain with A30R, Q67A
B45: K29G (designed binder)
chain: B1 chain with K29G, Q67A
B46: A105P (designed binder)
chain: B1 chain with Q67A, A105P
B47: H24S (designed binder)
chain: B1 chain with H24S, Q67A
B48: A36D (designed binder)
chain: B1 chain with A36D, Q67A
B49: K8L (designed binder)
chain: B1 chain with K8L, Q67A
B50: K107P (designed binder)
chain: B1 chain with Q67A, K107P
B51: S1F (designed binder)
chain: B1 chain with S1F, Q67A
B52: T57V (designed binder)
chain: B1 chain with T57V, Q67A
B53: A55P (designed binder)
chain: B1 chain with A55P, Q67A
B54: L75I (designed binder)
chain: B1 chain with Q67A, L75I
B55: K93Q (designed binder)
chain: B1 chain with Q67A, K93Q

Biological target: T1, TNFR1 (Homo sapiens, UniProt P19438)
T1 chain: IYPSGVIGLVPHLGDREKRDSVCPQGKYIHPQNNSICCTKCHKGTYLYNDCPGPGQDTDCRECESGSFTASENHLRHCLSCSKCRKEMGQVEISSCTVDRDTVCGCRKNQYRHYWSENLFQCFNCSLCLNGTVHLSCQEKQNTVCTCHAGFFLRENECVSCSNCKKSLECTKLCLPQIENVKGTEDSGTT
Assay: yeast display SC50

Binder | apparent Kd (screen)
B1 | 11.4 nM
B2 | 12.5 nM
B3 | 0.539 nM
B4 | 1.54 nM
B5 | 0.446 nM
B6 | 2.73 nM
B7 | 1.4 nM
B8 | 2.73 nM
B9 | 1.69 nM
B10 | 4.83 nM
B11 | 0.593 nM
B12 | 2.73 nM
B13 | 2.73 nM
B14 | 0.79 nM
B15 | 0.446 nM
B16 | 8.56 nM
B17 | 7.07 nM
B18 | 2.73 nM
B19 | 0.446 nM
B20 | 1.4 nM
B21 | 1.4 nM
B22 | 0.593 nM
B23 | 13.8 nM
B24 | 0.956 nM
B25 | 0.49 nM
B26 | 0.405 nM
B27 | 0.446 nM
B28 | 1.16 nM

Binder | apparent Kd (screen)
B29 | 16.7 nM
B30 | 0.335 nM
B31 | 4.83 nM
B32 | 2.25 nM
B33 | 1.86 nM
B34 | 2.48 nM
B35 | 12.5 nM
B36 | 1.69 nM
B37 | 5.84 nM
B38 | 7.07 nM
B39 | 0.405 nM
B40 | 12.5 nM
B41 | 2.73 nM
B42 | 4.83 nM
B43 | 2.73 nM
B44 | 0.79 nM
B45 | 0.446 nM
B46 | 0.653 nM
B47 | 0.869 nM
B48 | 0.446 nM
B49 | 0.718 nM
B50 | 0.956 nM
B51 | 4.39 nM
B52 | 0.49 nM
B53 | 12.5 nM
B54 | 0.79 nM
B55 | 0.49 nM

Reference: paper PMC12416549 (2024)
